In data set [1] the test system is T1, HcdR2 (LuxR family regulator) (Streptomyces mobaraensis US-43), ORF:dfa86b54.
T1 sequence: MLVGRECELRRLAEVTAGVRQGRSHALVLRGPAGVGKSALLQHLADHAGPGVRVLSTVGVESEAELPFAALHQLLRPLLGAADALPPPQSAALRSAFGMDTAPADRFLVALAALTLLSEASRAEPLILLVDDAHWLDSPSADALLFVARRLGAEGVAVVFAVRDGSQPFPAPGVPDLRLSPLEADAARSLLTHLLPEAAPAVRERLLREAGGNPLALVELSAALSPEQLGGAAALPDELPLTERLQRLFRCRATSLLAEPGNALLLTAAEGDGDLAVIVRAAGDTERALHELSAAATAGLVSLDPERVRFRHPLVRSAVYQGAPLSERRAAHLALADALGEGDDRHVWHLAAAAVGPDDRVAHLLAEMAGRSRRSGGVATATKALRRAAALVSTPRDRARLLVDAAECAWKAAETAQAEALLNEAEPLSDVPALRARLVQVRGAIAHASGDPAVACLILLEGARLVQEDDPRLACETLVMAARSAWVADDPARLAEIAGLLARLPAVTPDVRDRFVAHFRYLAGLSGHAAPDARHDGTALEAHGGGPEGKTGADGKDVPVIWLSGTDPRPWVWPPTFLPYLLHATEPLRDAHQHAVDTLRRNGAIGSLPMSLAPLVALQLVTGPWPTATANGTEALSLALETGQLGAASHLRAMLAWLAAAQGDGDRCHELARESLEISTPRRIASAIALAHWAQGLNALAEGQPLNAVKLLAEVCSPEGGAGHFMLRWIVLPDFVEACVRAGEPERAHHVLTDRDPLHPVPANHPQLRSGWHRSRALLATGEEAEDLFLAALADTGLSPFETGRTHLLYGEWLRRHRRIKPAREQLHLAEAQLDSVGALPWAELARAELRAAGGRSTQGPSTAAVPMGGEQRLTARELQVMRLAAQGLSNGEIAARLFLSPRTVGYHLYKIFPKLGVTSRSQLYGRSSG
Nature of the data set: EMSA. The conditions noted are these: EMSA: 10 mM Tris-HCl, 50 mM KCl, 1 mM DTT, pH 7.5 (1x of 10x buffer), 20 fmol probe in 20 uL, 25-2000 nM protein, room temperature 20 min; native 5% gel, 0.5x …. For orientation: In EMSA bound probe runs differently from free probe, usually more slowly.

The test system is the same in data set [2]. Put plainly: competition. The conditions noted are these: EMSA: 10 mM Tris-HCl, 50 mM KCl, 1 mM DTT, pH 7.5 (1x of 10x buffer), 20 fmol probe in 20 uL, 25-2000 nM protein, room temperature 20 min; native 5% gel, 0.5x ….

Take “GATTCAGCCAAGTGACCCCGCAAGAAGCCTCGTTCGCGAACGGTCCCTGAGCCCGCGCCCGCGCCGCACCCGCGGACCATCCGCCGAACGGCCGGGCCGCCCGTACGGTCTGGAGAGCGCCACGGCGTGCGGGTCCCGGTGGTGGGCCACGGCGCGGCCGACCCGTCAGGTGTTTCCGGGAGGCCGCGCCGCGGAGGGCACGCACGTCCGTGGCGGGACCGGGGGACGGGAGACGGCGTGGCGCCGCGTCATGGTCGTCCGGCGCCTCGATGCCGTCACGGCGCAGGGCGGGCCCGCCGG (double strand) [hcdT-1p]”: the binding result in data set [1] is recorded as “no binding”.
Regarding “CTCTTCGCGGGGAGAGAGCGGCCGGTCGCGGCACGGCGAGCCTATGAAGATCGACACGGCCGCCCCACCCCCTACGACCCCTACGAACCCCTGTCCCCTACCGGCGCGGCAGGGGACAGGGGTTCGTAGGGGTCGTAGGGGGTGGGGGGCCGCCGGACGATCTTCATAGGCTCGCTCTCGATCGGAGACGGCCCTCGCAGCCGTGTCCCCGGCAACCCGGACTTCTCGCGGACCGGCCGCCCCCAGGCCGACCCCCCTACTCGATCCACGACGAGAAAGAGGTT (double strand) [V2 Bp]”, the binding result in data set [2] is “binds”.
“CGCGCCCAGCGGCCAGGTGGGCCGTTGCGCCAGGCGGGCGGCCGCCACCCCCGCAGTGCCAGGGGCAGTCCGCCGCACAGCTCGGCCAGCCGTCGCGCAGC (double strand) [hcdR1p]”: in data set [2], the binding entry is “no binding”.

Source of the values: paper PMC6794829.
